From PMC4441004, “Functional Characterization and Categorization of Missense Mutations that Cause Methylmalonyl‐CoA Mutase (MUT) Deficiency” (Human Mutation, 2014)

Biological target: the molecule itself
Assay: SEC; Superdex 200 in the large-scale purification from E. coli; retention volumes of the mutants compared with wt MUT; data not shown

| Protein | stoichiometry N |
| --- | --- |
| MUT p.F573S (enzyme, human, methylmalonyl-CoA mutase (MUT), human; construct 'hMUT' of Froese et al., 2010b with a patient missense mutation; Same construct limits as m1 (see its note); source: E. coli, purified (Ni-NTA, Superdex 200, TEV cleavage, reverse Ni-NTA)) LHQQQPLHPEWAALAKKQLKGKNPEDLIWHTPEGISIKPLYSKRDTMDLPEELPGVKPFTRGPYPTMYTFRPWTIRQYAGFSTVEESNKFYKDNIKAGQQGLSVAFDLATHRGYDSDNPRVRGDVGMAGVAIDTVEDTKILFDGIPLEKMSVSMTMNGAVIPVLANFIVTGEEQGVPKEKLTGTIQNDILKEFMVRNTYIFPPEPSMKIIADIFEYTAKHMPKFNSISISGYHMQEAGADAILELAYTLADGLEYSRTGLQAGLTIDEFAPRLSFFWGIGMNFYMEIAKMRAGRRLWAHLIEKMFQPKNSKSLLLRAHCQTSGWSLTEQDPYNNIVRTAIEAMAAVFGGTQSLHTNSFDEALGLPTVKSARIARNTQIIIQEESGIPKVADPWGGSYMMECLTNDVYDAALKLINEIEEMGGMAKAVAEGIPKLRIEECAARRQARIDSGSEVIVGVNKYQLEKEDAVEVLAIDNTSVRNRQIEKLKKIKSSRDQALAERCLAALTECAASGDGNILALAVDASRARCTVGEITDALKKVSGEHKANDRMVSGAYRQEFGESKEITSAIKRVHKFMEREGRRPRLLVAKMGQDGHDRGAKVIATGFADLGFDVDIGPLFQTPREVAQQAVDADVHAVGISTLAAGHKTLVPELIKELNSLGRPDILVMCGGVIPPQDYEFLFEVGVSNVFGPGTRIPKAAVQVLDDIEKCLEKKQQSV | 2 |
| MUT p.V633G (enzyme, human, methylmalonyl-CoA mutase (MUT), human; construct 'hMUT' of Froese et al., 2010b with a patient missense mutation; Same construct limits as m1 (see its note); source: E. coli, purified (Ni-NTA, Superdex 200, TEV cleavage, reverse Ni-NTA)) LHQQQPLHPEWAALAKKQLKGKNPEDLIWHTPEGISIKPLYSKRDTMDLPEELPGVKPFTRGPYPTMYTFRPWTIRQYAGFSTVEESNKFYKDNIKAGQQGLSVAFDLATHRGYDSDNPRVRGDVGMAGVAIDTVEDTKILFDGIPLEKMSVSMTMNGAVIPVLANFIVTGEEQGVPKEKLTGTIQNDILKEFMVRNTYIFPPEPSMKIIADIFEYTAKHMPKFNSISISGYHMQEAGADAILELAYTLADGLEYSRTGLQAGLTIDEFAPRLSFFWGIGMNFYMEIAKMRAGRRLWAHLIEKMFQPKNSKSLLLRAHCQTSGWSLTEQDPYNNIVRTAIEAMAAVFGGTQSLHTNSFDEALGLPTVKSARIARNTQIIIQEESGIPKVADPWGGSYMMECLTNDVYDAALKLINEIEEMGGMAKAVAEGIPKLRIEECAARRQARIDSGSEVIVGVNKYQLEKEDAVEVLAIDNTSVRNRQIEKLKKIKSSRDQALAERCLAALTECAASGDGNILALAVDASRARCTVGEITDALKKVFGEHKANDRMVSGAYRQEFGESKEITSAIKRVHKFMEREGRRPRLLVAKMGQDGHDRGAKGIATGFADLGFDVDIGPLFQTPREVAQQAVDADVHAVGISTLAAGHKTLVPELIKELNSLGRPDILVMCGGVIPPQDYEFLFEVGVSNVFGPGTRIPKAAVQVLDDIEKCLEKKQQSV | 2 |
| MUT p.R694W (enzyme, human, methylmalonyl-CoA mutase (MUT), human; construct 'hMUT' of Froese et al., 2010b with a patient missense mutation; Same construct limits as m1 (see its note); source: E. coli, purified (Ni-NTA, Superdex 200, TEV cleavage, reverse Ni-NTA)) LHQQQPLHPEWAALAKKQLKGKNPEDLIWHTPEGISIKPLYSKRDTMDLPEELPGVKPFTRGPYPTMYTFRPWTIRQYAGFSTVEESNKFYKDNIKAGQQGLSVAFDLATHRGYDSDNPRVRGDVGMAGVAIDTVEDTKILFDGIPLEKMSVSMTMNGAVIPVLANFIVTGEEQGVPKEKLTGTIQNDILKEFMVRNTYIFPPEPSMKIIADIFEYTAKHMPKFNSISISGYHMQEAGADAILELAYTLADGLEYSRTGLQAGLTIDEFAPRLSFFWGIGMNFYMEIAKMRAGRRLWAHLIEKMFQPKNSKSLLLRAHCQTSGWSLTEQDPYNNIVRTAIEAMAAVFGGTQSLHTNSFDEALGLPTVKSARIARNTQIIIQEESGIPKVADPWGGSYMMECLTNDVYDAALKLINEIEEMGGMAKAVAEGIPKLRIEECAARRQARIDSGSEVIVGVNKYQLEKEDAVEVLAIDNTSVRNRQIEKLKKIKSSRDQALAERCLAALTECAASGDGNILALAVDASRARCTVGEITDALKKVFGEHKANDRMVSGAYRQEFGESKEITSAIKRVHKFMEREGRRPRLLVAKMGQDGHDRGAKVIATGFADLGFDVDIGPLFQTPREVAQQAVDADVHAVGISTLAAGHKTLVPELIKELNSLGWPDILVMCGGVIPPQDYEFLFEVGVSNVFGPGTRIPKAAVQVLDDIEKCLEKKQQSV | 2 |
| MUT p.M700K (enzyme, human, methylmalonyl-CoA mutase (MUT), human; construct 'hMUT' of Froese et al., 2010b with a patient missense mutation; Same construct limits as m1 (see its note); source: E. coli, purified (Ni-NTA, Superdex 200, TEV cleavage, reverse Ni-NTA)) LHQQQPLHPEWAALAKKQLKGKNPEDLIWHTPEGISIKPLYSKRDTMDLPEELPGVKPFTRGPYPTMYTFRPWTIRQYAGFSTVEESNKFYKDNIKAGQQGLSVAFDLATHRGYDSDNPRVRGDVGMAGVAIDTVEDTKILFDGIPLEKMSVSMTMNGAVIPVLANFIVTGEEQGVPKEKLTGTIQNDILKEFMVRNTYIFPPEPSMKIIADIFEYTAKHMPKFNSISISGYHMQEAGADAILELAYTLADGLEYSRTGLQAGLTIDEFAPRLSFFWGIGMNFYMEIAKMRAGRRLWAHLIEKMFQPKNSKSLLLRAHCQTSGWSLTEQDPYNNIVRTAIEAMAAVFGGTQSLHTNSFDEALGLPTVKSARIARNTQIIIQEESGIPKVADPWGGSYMMECLTNDVYDAALKLINEIEEMGGMAKAVAEGIPKLRIEECAARRQARIDSGSEVIVGVNKYQLEKEDAVEVLAIDNTSVRNRQIEKLKKIKSSRDQALAERCLAALTECAASGDGNILALAVDASRARCTVGEITDALKKVFGEHKANDRMVSGAYRQEFGESKEITSAIKRVHKFMEREGRRPRLLVAKMGQDGHDRGAKVIATGFADLGFDVDIGPLFQTPREVAQQAVDADVHAVGISTLAAGHKTLVPELIKELNSLGRPDILVKCGGVIPPQDYEFLFEVGVSNVFGPGTRIPKAAVQVLDDIEKCLEKKQQSV | 2 |
| MUT p.G717V (enzyme, human, methylmalonyl-CoA mutase (MUT), human; construct 'hMUT' of Froese et al., 2010b with a patient missense mutation; Same construct limits as m1 (see its note); source: E. coli, purified (Ni-NTA, Superdex 200, TEV cleavage, reverse Ni-NTA)) LHQQQPLHPEWAALAKKQLKGKNPEDLIWHTPEGISIKPLYSKRDTMDLPEELPGVKPFTRGPYPTMYTFRPWTIRQYAGFSTVEESNKFYKDNIKAGQQGLSVAFDLATHRGYDSDNPRVRGDVGMAGVAIDTVEDTKILFDGIPLEKMSVSMTMNGAVIPVLANFIVTGEEQGVPKEKLTGTIQNDILKEFMVRNTYIFPPEPSMKIIADIFEYTAKHMPKFNSISISGYHMQEAGADAILELAYTLADGLEYSRTGLQAGLTIDEFAPRLSFFWGIGMNFYMEIAKMRAGRRLWAHLIEKMFQPKNSKSLLLRAHCQTSGWSLTEQDPYNNIVRTAIEAMAAVFGGTQSLHTNSFDEALGLPTVKSARIARNTQIIIQEESGIPKVADPWGGSYMMECLTNDVYDAALKLINEIEEMGGMAKAVAEGIPKLRIEECAARRQARIDSGSEVIVGVNKYQLEKEDAVEVLAIDNTSVRNRQIEKLKKIKSSRDQALAERCLAALTECAASGDGNILALAVDASRARCTVGEITDALKKVFGEHKANDRMVSGAYRQEFGESKEITSAIKRVHKFMEREGRRPRLLVAKMGQDGHDRGAKVIATGFADLGFDVDIGPLFQTPREVAQQAVDADVHAVGISTLAAGHKTLVPELIKELNSLGRPDILVMCGGVIPPQDYEFLFEVVVSNVFGPGTRIPKAAVQVLDDIEKCLEKKQQSV | 2 |
| MUT p.G648D (enzyme, human, methylmalonyl-CoA mutase (MUT), human; construct 'hMUT' of Froese et al., 2010b with a patient missense mutation; Same construct limits as m1 (see its note); source: E. coli, purified (Ni-NTA, Superdex 200, TEV cleavage, reverse Ni-NTA)) LHQQQPLHPEWAALAKKQLKGKNPEDLIWHTPEGISIKPLYSKRDTMDLPEELPGVKPFTRGPYPTMYTFRPWTIRQYAGFSTVEESNKFYKDNIKAGQQGLSVAFDLATHRGYDSDNPRVRGDVGMAGVAIDTVEDTKILFDGIPLEKMSVSMTMNGAVIPVLANFIVTGEEQGVPKEKLTGTIQNDILKEFMVRNTYIFPPEPSMKIIADIFEYTAKHMPKFNSISISGYHMQEAGADAILELAYTLADGLEYSRTGLQAGLTIDEFAPRLSFFWGIGMNFYMEIAKMRAGRRLWAHLIEKMFQPKNSKSLLLRAHCQTSGWSLTEQDPYNNIVRTAIEAMAAVFGGTQSLHTNSFDEALGLPTVKSARIARNTQIIIQEESGIPKVADPWGGSYMMECLTNDVYDAALKLINEIEEMGGMAKAVAEGIPKLRIEECAARRQARIDSGSEVIVGVNKYQLEKEDAVEVLAIDNTSVRNRQIEKLKKIKSSRDQALAERCLAALTECAASGDGNILALAVDASRARCTVGEITDALKKVFGEHKANDRMVSGAYRQEFGESKEITSAIKRVHKFMEREGRRPRLLVAKMGQDGHDRGAKVIATGFADLGFDVDIDPLFQTPREVAQQAVDADVHAVGISTLAAGHKTLVPELIKELNSLGRPDILVMCGGVIPPQDYEFLFEVGVSNVFGPGTRIPKAAVQVLDDIEKCLEKKQQSV | 2 |
| MUT p.P86L (enzyme, human, methylmalonyl-CoA mutase (MUT), human; construct 'hMUT' of Froese et al., 2010b with a patient missense mutation; Same construct limits as m1 (see its note); source: E. coli, purified (Ni-NTA, Superdex 200, TEV cleavage, reverse Ni-NTA)) LHQQQPLHPEWAALAKKQLKGKNPEDLIWHTPEGISIKPLYSKRDTMDLPEELLGVKPFTRGPYPTMYTFRPWTIRQYAGFSTVEESNKFYKDNIKAGQQGLSVAFDLATHRGYDSDNPRVRGDVGMAGVAIDTVEDTKILFDGIPLEKMSVSMTMNGAVIPVLANFIVTGEEQGVPKEKLTGTIQNDILKEFMVRNTYIFPPEPSMKIIADIFEYTAKHMPKFNSISISGYHMQEAGADAILELAYTLADGLEYSRTGLQAGLTIDEFAPRLSFFWGIGMNFYMEIAKMRAGRRLWAHLIEKMFQPKNSKSLLLRAHCQTSGWSLTEQDPYNNIVRTAIEAMAAVFGGTQSLHTNSFDEALGLPTVKSARIARNTQIIIQEESGIPKVADPWGGSYMMECLTNDVYDAALKLINEIEEMGGMAKAVAEGIPKLRIEECAARRQARIDSGSEVIVGVNKYQLEKEDAVEVLAIDNTSVRNRQIEKLKKIKSSRDQALAERCLAALTECAASGDGNILALAVDASRARCTVGEITDALKKVFGEHKANDRMVSGAYRQEFGESKEITSAIKRVHKFMEREGRRPRLLVAKMGQDGHDRGAKVIATGFADLGFDVDIGPLFQTPREVAQQAVDADVHAVGISTLAAGHKTLVPELIKELNSLGRPDILVMCGGVIPPQDYEFLFEVGVSNVFGPGTRIPKAAVQVLDDIEKCLEKKQQSV | 2 |
| MUT p.R694L (enzyme, human, methylmalonyl-CoA mutase (MUT), human; construct 'hMUT' of Froese et al., 2010b with a patient missense mutation; Same construct limits as m1 (see its note); source: E. coli, purified (Ni-NTA, Superdex 200, TEV cleavage, reverse Ni-NTA)) LHQQQPLHPEWAALAKKQLKGKNPEDLIWHTPEGISIKPLYSKRDTMDLPEELPGVKPFTRGPYPTMYTFRPWTIRQYAGFSTVEESNKFYKDNIKAGQQGLSVAFDLATHRGYDSDNPRVRGDVGMAGVAIDTVEDTKILFDGIPLEKMSVSMTMNGAVIPVLANFIVTGEEQGVPKEKLTGTIQNDILKEFMVRNTYIFPPEPSMKIIADIFEYTAKHMPKFNSISISGYHMQEAGADAILELAYTLADGLEYSRTGLQAGLTIDEFAPRLSFFWGIGMNFYMEIAKMRAGRRLWAHLIEKMFQPKNSKSLLLRAHCQTSGWSLTEQDPYNNIVRTAIEAMAAVFGGTQSLHTNSFDEALGLPTVKSARIARNTQIIIQEESGIPKVADPWGGSYMMECLTNDVYDAALKLINEIEEMGGMAKAVAEGIPKLRIEECAARRQARIDSGSEVIVGVNKYQLEKEDAVEVLAIDNTSVRNRQIEKLKKIKSSRDQALAERCLAALTECAASGDGNILALAVDASRARCTVGEITDALKKVFGEHKANDRMVSGAYRQEFGESKEITSAIKRVHKFMEREGRRPRLLVAKMGQDGHDRGAKVIATGFADLGFDVDIGPLFQTPREVAQQAVDADVHAVGISTLAAGHKTLVPELIKELNSLGLPDILVMCGGVIPPQDYEFLFEVGVSNVFGPGTRIPKAAVQVLDDIEKCLEKKQQSV | 2 |
